In the assay the target is Streptococcus pyogenes Cas9 (SpyCas9) (UniProt Q99ZW2). Nature of the assay: SEC co-migration followed by SDS-PAGE, band intensity quantified. As to conditions: parent: est. 99; read off a plot.
Turning to “AcrIIA28 from Streptococcus phage Javan 128 W45I”, the response amounted to 3%. The same measure for “AcrIIA28 from Streptococcus phage Javan 128 S81W”: 21%; for “AcrIIA28 from Streptococcus phage Javan 128 H30W”: 81%. The same measure for “AcrIIA28 from Streptococcus phage Javan 128 K38W”: 83%; for “AcrIIA28 from Streptococcus phage Javan 128 K48D”: 93%; for “AcrIIA28 from Streptococcus phage Javan 128 R41W”: 96%. The same measure for “AcrIIA28 from Streptococcus phage Javan 128 K7D”: 41%; for “AcrIIA28 from Streptococcus phage Javan 128 S34W”: 97%.
